Results on four molecules are retold here after paper PMC12297318, “Removal of promoter CpG methylation by epigenome editing reverses HBG silencing”.

Sequences and labels used below:
B1: BCAT1 promoter CpG sites, methylated (dsDNA)
DNA 1: CCGGCCCTCTCGCGGCGGAGACTCGCGACCTAGCGGATTGCATCAGCAGGAAGAC
DNA 2: GTCTTCCTGCTGATGCAATCCGCTAGGTCGCGAGTCTCCGCCGCGAGAGGGCCGG
modifications: 5-methyl-dC at sense positions 2,11,13,16,24,26,34 and antisense positions 21,29,31,39,42,44,53
B2: BCAT1 promoter CpG sites, unmethylated (dsDNA)
DNA 1: B1 DNA 1
DNA 2: B1 DNA 2
B3: HBG -53/-50 CpG sites, methylated (dsDNA)
DNA 1: TGAGGCCAGGGGCCGGCGGCTGGCTAGGGAT
DNA 2: ATCCCTAGCCAGCCGCCGGCCCCTGGCCTCA
modifications: 5-methyl-dC at positions 14 and 17 of sense and 14 and 17 of antisense
B4: HBG -53/-50 CpG sites, unmethylated (dsDNA)
DNA 1: B3 DNA 1
DNA 2: B3 DNA 2

In one series the target is MBD2sc WT (MBD2 MBD-IDR-CC fused to GATAD2A CC) (UniProt Q9UBB5 150-393+Q86YP4:138-178, internal_change). Description: EMSA; Protein at 50x molar excess over probe, 10 min at room temperature; binding buffer not stated (protein storage: 10 mM Tris-HCl pH 7.5, 150 mM NaCl, 1 mM EDTA, 1 mM PMSF, 10% glycerol); 6% native PAGE in TBE (45 mM Tris, 45 mM boric acid, 1 mM EDTA) at 4 C. The following applies: protein: recombinant; tags: pET32a vector tags (Ni-NTA purified); label: 32P 5' end of antisense strand; blunt. In general terms: A gel shift assay detects complexes by their altered migration in electrophoresis.
Sequence of MBD2sc WT (MBD2 MBD-IDR-CC fused to GATAD2A CC) (Q9UBB5 other isoform, or with tags, fused parts or gaps): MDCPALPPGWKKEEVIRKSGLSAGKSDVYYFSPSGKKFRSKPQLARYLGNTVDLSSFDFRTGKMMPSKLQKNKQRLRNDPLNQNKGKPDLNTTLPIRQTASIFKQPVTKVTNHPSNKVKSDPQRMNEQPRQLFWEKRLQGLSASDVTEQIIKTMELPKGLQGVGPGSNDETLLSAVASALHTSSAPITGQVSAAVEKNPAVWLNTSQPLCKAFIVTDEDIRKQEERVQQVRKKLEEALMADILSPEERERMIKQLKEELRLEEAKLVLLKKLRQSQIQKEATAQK
On to B1, for which the binding result is on record as “binds”.

For B2, the binding result is “no binding”. Same read-out and setting: for B3 the value was “binds”; for B4, “no binding”.

In another series the target is MBD2sc Y178F (UniProt Q9UBB5 150-393+Q86YP4:138-178, Y178F;internal_change). Described as above. The conditions noted are these: protein: recombinant; tags: pET32a vector tags (Ni-NTA purified); label: 32P 5' end of antisense strand; blunt.
Sequence of MBD2sc Y178F (Q9UBB5 other isoform, or with tags, fused parts or gaps Y178F/| Y178F Y178F): as the sequence (Q9UBB5 other isoform, or with tags, fused parts or gaps) above, with Y29F counted along it
B1: the binding result is listed as “no binding”.

Take B3: the binding result is “no binding”.
